Test results: publication PMC8516096

Tests used:
Conditions in all cases: Holoenzyme reconstitution: 200 mM Tris-HCl pH 8.0, 30 mM KCl, 10 mM MgCl2, 50 mM NaCl, 1 mM DTT, 1 mM EDTA, BSA 20 ug/ml, 30 C 45 min; DNA binding: 50 mM …
[1] = target: T1, RNAP core enzyme (E, alpha2 beta beta' omega);RpoS (sigmaS, sigma38);Crl (Escherichia coli;Salmonella enterica serovar Typhimurium ATCC 14028?;Salmonella enterica serovar Typhimurium ATCC 14028?) (UniProt P0A7Z4+P0A8V2+P0A8T7+P0A800+D0ZVL4+Q7CR52); experiment: EMSA with anti-RpoS immunoblot
[2] = target: T2, RNAP core enzyme (E, alpha2 beta beta' omega);RpoS (sigmaS, sigma38) (Escherichia coli;Salmonella enterica serovar Typhimurium ATCC 14028?) (UniProt P0A7Z4+P0A8V2+P0A8T7+P0A800+D0ZVL4); experiment: EMSA with anti-RpoS immunoblot
[3] = target: RNAP core enzyme (E, alpha2 beta beta' omega) (Escherichia coli) (UniProt P0A7Z4+P0A8V2+P0A8T7+P0A800); experiment: EMSA
[4] = target: RNAP core enzyme (E, alpha2 beta beta' omega);RpoD (sigmaD, sigma70) (Escherichia coli;Salmonella enterica serovar Typhimurium ATCC 14028?) (UniProt P0A7Z4+P0A8V2+P0A8T7+P0A800+P0A2E3); experiment: EMSA
[5] = target: T2, RNAP core enzyme (E, alpha2 beta beta' omega);RpoS (sigmaS, sigma38) (Escherichia coli;Salmonella enterica serovar Typhimurium ATCC 14028?); experiment: EMSA
[6] = target: T1, RNAP core enzyme (E, alpha2 beta beta' omega);RpoS (sigmaS, sigma38);Crl (Escherichia coli;Salmonella enterica serovar Typhimurium ATCC 14028?;Salmonella enterica serovar Typhimurium ATCC 14028?); experiment: competition EMSA with anti-RpoS immunoblot

Measured: binding

AGTACATATAGTTTCATCAGAAGATTAATCGATGGTGTTATCATTAGGAAGATAAATTTCTTCATATATAACCCAGTCGATGACTACAATTACTTTTTAATAAGATGGCGATGTAAAAACATCGTAACAGTTTATTTAATAAATAATTTTTCAAATTGTAAGTTTTTATGTC (double strand) [PssrA region]
binds: all assays above
